Experiments:
Assay in all cases: SPR
[1] = target: CVB3/MKP3 (VP3-234Q) full particles (coxsackievirus B3, strain MKP)
[2] = target: CVB3/XJ12-36/XJ/CHN/2012 (VP3-234N) full particles (coxsackievirus B3, isolate XJ12-36/XJ/CHN/2012)
[3] = target: CVB3/HuN16-54/HuN/CHN/2016 (VP3-234D) full particles (coxsackievirus B3, isolate HuN16-54/HuN/CHN/2016)
[4] = target: CVB3/GS12-55/GS/CHN/2012 (VP3-234V) full particles (coxsackievirus B3, isolate GS12-55/GS/CHN/2012)

| Substance | Kd [1] | Kd [2] | Kd [3] | Kd [4] |
| --- | --- | --- | --- | --- |
| soluble extracellular D1 and D2 domains of the human CAR protein (from UniProt P78310 20-236) (receptor) | 3.16 µM | – | – | – |
| soluble extracellular domain of the human CD55 protein (from UniProt P08174 35-285) (receptor) | 0.465 µM | 7.8 µM | 46 µM | 10 µM |

Source: article PMC8794823
